Patent US20260217779
Numbering of substitutions follows the chain as printed.

Columns and labels:
[1] = molecular target: T1, hITIP0033-G1T4k.one//VHn-G1T4h.one.H435R
T1 chain 1: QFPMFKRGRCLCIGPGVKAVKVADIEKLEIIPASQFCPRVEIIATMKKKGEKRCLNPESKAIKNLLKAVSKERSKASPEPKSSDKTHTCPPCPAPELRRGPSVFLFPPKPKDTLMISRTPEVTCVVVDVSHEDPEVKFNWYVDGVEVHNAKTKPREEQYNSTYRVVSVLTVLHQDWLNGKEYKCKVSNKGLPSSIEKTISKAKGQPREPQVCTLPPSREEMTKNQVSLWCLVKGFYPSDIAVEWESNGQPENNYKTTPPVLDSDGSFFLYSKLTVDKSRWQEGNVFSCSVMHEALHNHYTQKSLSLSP
T1 chain 2: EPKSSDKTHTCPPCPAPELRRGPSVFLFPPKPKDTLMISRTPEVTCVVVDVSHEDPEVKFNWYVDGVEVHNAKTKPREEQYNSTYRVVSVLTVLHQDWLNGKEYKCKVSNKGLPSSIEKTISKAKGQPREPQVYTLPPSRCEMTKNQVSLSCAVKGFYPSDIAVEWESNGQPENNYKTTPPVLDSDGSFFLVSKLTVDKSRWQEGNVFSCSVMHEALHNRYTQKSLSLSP

[2] = molecular target: T2, hITIP0037-G1T4k.one//VHn-G1T4h.one.H435R
T2 chain 1: T1 chain 1 with Q1V
T2 chain 2: T1 chain 2

[3] = molecular target: T3, hCXCL11.0025-G1T4k.one//VHn-G1T4h.one.H435R
T3 chain 1: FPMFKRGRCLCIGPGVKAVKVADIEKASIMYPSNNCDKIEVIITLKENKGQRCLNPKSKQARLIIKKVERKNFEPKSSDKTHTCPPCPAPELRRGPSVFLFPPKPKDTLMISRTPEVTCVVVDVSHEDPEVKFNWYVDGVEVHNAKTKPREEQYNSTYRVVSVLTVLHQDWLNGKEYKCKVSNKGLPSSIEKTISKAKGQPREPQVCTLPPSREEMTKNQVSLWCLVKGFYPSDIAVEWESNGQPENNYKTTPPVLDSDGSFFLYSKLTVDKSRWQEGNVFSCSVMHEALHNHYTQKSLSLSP
T3 chain 2: T1 chain 2

[4] = molecular target: T4, hCXCL11-G1T4k.one//VHn-G1T4h.one.H435R
T4 chain 1: T3 chain 1
T4 chain 2: T1 chain 2

[5] = molecular target: T5, hITIP-G1T4k.one//VHn-G1T4h.one.H435R
T5 chain 1: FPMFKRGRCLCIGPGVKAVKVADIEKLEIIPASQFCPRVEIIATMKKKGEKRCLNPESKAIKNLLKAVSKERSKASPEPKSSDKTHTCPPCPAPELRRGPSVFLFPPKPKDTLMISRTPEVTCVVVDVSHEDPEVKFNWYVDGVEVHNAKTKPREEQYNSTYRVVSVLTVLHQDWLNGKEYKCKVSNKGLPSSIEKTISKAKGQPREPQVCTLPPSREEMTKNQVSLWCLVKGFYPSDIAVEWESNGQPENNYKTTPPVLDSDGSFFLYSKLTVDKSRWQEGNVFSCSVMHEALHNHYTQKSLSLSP
T5 chain 2: T1 chain 2

[6] = molecular target: T6, hCXCL11.0022-G1T4k.one//VHn-G1T4h.one.H435R
T6 chain 1: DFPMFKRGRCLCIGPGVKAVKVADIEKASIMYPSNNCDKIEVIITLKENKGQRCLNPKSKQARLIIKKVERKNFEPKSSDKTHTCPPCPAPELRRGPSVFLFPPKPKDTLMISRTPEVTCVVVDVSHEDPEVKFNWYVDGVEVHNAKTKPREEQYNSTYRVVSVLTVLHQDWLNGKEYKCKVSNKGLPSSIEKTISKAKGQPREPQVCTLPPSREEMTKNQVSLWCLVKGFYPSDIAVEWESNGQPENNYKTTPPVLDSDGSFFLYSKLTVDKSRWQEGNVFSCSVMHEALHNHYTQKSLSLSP
T6 chain 2: T1 chain 2

[7] = molecular target: T7, hITIP0039-G1T4k.one//VHn-G1T4h.one.H435R
T7 chain 1: T1 chain 1 with Q1Y
T7 chain 2: T1 chain 2

[8] = molecular target: T8, hITIP0030-G1T4k.one//VHn-G1T4h.one.H435R
T8 chain 1: T1 chain 1 with Q1M
T8 chain 2: T1 chain 2

[9] = molecular target: T9, hCXCL11.0030-G1T4k.one//VHn-G1T4h.one.H435R
T9 chain 1: T6 chain 1 with D1M
T9 chain 2: T1 chain 2

B1: human dipeptidyl peptidase IV (human DPPIV, hDPPIV) (Biolegend, 764102) (protein)
chain: NKGTDDATADSRKTYTLTDYLKNTYRLKLYSLRWISDHEYLYKQENNILVFNAEYGNSSVFLENSTFDEFGHSINDYSISPDGQFILLEYNYVKQWRHSYTASYDIYDLNKRQLITEERIPNNTQWVTWSPVGHKLAYVWNNDIYVKIEPNLPSYRITWTGKEDIIYNGITDWVYEEEVFSAYSALWWSPNGTFLAYAQFNDTEVPLIEYSFYSDESLQYPKTVRVPYPKAGAVNPTVKFFVVNTDSLSSVTNATSIQITAPASMLIGDHYLCDVTWATQERISLQWLRRIQNYSVMDICDYDESSGRWNCLVARQHIEMSTTGWVGRFRPSEPHFTLDGNSFYKIISNEEGYRHICYFQIDKKDCTFITKGTWEVIGIEALTSDYLYYISNEYKGMPGGRNLYKIQLSDYTKVTCLSCELNPERCQYYSVSFSKEAKYYQLRCSGPGLPLYTLHSSVNDKGLRVLEDNSALDKMLQNVQMPSKKLDFIILNETKFWYQMILPPHFDKSKKYPLLLDVYAGPCSQKADTVFRLNWATYLASTENIIVASFDGRGSGYQGDKIMHAINRRLGTFEVEDQIEAARQFSKMGFVDNKRIAIWGWSYGGYVTSMVLGSGSGVFKCGIAVAPVSRWEYYDSVYTERYMGLPTPEDNLDHYRNSTVMSRAENFKQVEYLLIHGTADDNVHFQQSAQISKALVDVGVDFQAMWYTDEDHGIASSTAHQHIYTHMSHFIKQCFSLP
[1]
  cleavage by hDPPIV (LC/MS mass): showed no mass change suggestive of peptide bond cleavage by hDPPIV treatment
[2]
  cleavage by hDPPIV (LC/MS mass): showed no mass change suggestive of peptide bond cleavage by hDPPIV treatment
[3]
  cleavage by hDPPIV (LC/MS mass): showed no mass change suggestive of peptide bond cleavage by hDPPIV treatment
[4]
  cleavage by hDPPIV (LC/MS mass): DPPIV treatment reduced each of the masses
[5]
  cleavage by hDPPIV (LC/MS mass): DPPIV treatment reduced each of the masses
[6]
  cleavage by hDPPIV (LC/MS mass): showed no mass change suggestive of peptide bond cleavage by hDPPIV treatment
[7]
  cleavage by hDPPIV (LC/MS mass): showed no mass change suggestive of peptide bond cleavage by hDPPIV treatment
[8]
  cleavage by hDPPIV (LC/MS mass): showed no mass change suggestive of peptide bond cleavage by hDPPIV treatment
[9]
  cleavage by hDPPIV (LC/MS mass): showed no mass change suggestive of peptide bond cleavage by hDPPIV treatment
